Measured values reported in JP2020148511A (dated 2020).

Experiments:
[1] = target: A型インフルエンザウィルス亜型H1N1(A/Puerto Rico/8/1934)の核内タンパク質(NP抗原) (Influenza A virus H1N1 (A/Puerto …, UniProt P03466 1-498)); assay: sandwich ELISA, […] (capture) […]
[2] = target: H1N1インフルエンザウィルスA型(A/Puerto Rico/8/34/Mount Sinai)由来のリコンビナント核内タンパク質 (Influenza A virus H1N1 (A/Puerto …, UniProt P03466 1-498)); assay: phage ELISA, NP coated at 2 ug/mL, anti-M13 detection, A450

Binder	binding result [1]	binding result [2]
抗体A1 (VHH antibody having the amino acid sequence of SEQ ID NO: 1) (VHH) VHH: QLQLVESGGGLVQAGGSLRLSCAASGSAFSLYAMGWHRQAPGKQRELVAYITNGDITNYADSVQGRVIISRDNAKNTVYLHMNSLKPEDTAVYYCYAVGGRTFWGQGTQVTVSS	binds	–
抗体A3 (VHH antibody having the amino acid sequence of SEQ ID NO: 3) (VHH) VHH: EVQLVESGGGLVQPGGSLSLSCAASGFTFSNYYMGWFRQAPGKERQSLATVNSGGTGEAYADSIRGRFTISRDNAKNTVTLQMSSLQPEDTAVYYCARVDGRVLSTIVVSYDYWGQGTQVTVSS	binds	binds
抗体A4 (VHH antibody having the amino acid sequence of SEQ ID NO: 4) (VHH) VHH: EVQLVESGGGLVQAGDSLRLSCAASGRTFINLDMGWFRQPPGKEREYVAAITRNGAITSYADSAKGRFTISRDNAKNTVSLEMNSLKPEDTGVYYCAAYSISNYGSGWYKPDYWGQGAQVTVSS	binds	–
抗体A2 (VHH antibody having the amino acid sequence of SEQ ID NO: 2) (VHH) VHH: QVQLVESGGGLVQTGGPLRLSCAVSDRTDSNYAMGWFRQAPGKEREFVAAISGTGYVTGYADSARNRFTLSRDNGKNAVYLQMNSLEPADTAVYYCAATSDQRYPGPRSSGYDYWGQGTQVTVSS	binds	–
